Experiment [1] concerns the target HBV core protein mutant Cp-Y132A (assembly-incompetent) homodimer (hepatitis B virus (HBV)) (UniProt P03147). Put plainly: optical tweezers force spectroscopy.
The target is the same in experiment [2]. Put plainly: HAP-Alexa488 staining with photobleaching step counting.

In article PMC8565845 one finds ω (unitless association constant for two nucleic acid-bound ligands) and stoichiometry N data, which are given here for one substance.

With “HBV core protein mutant Cp-Y132A (assembly-incompetent) homodimer (from UniProt P03147 1-149) (natural protein)”, in experiment [1], the ω (unitless association constant for two nucleic acid-bound ligands) turned out to be 500. In experiment [2], the stoichiometry N came out at 2 Cp dimers.

In general, stoichiometry N refers to a count of units in the complex or per binding partner.
